This note sets out measurements from paper PMC6150406, “Adding an Artificial Tail—Anchor to a Peptide-Based HIV-1 Fusion Inhibitor for Improvement of Its Potency and Resistance Profile” (Molecules : A Journal of Synthetic Chemistry and Natural …, 2017).

Where only a bound is given, the exact number is not on record here.

In assay [1] the target is gp41 A6V (T2635-resistant HIV-1 strain) (HIV-1).
Assay [2] concerns the target gp41 H3C (T2635-resistant HIV-1 strain) (HIV-1).
Assay [3] concerns the target gp41 K154Q (T2635-resistant HIV-1 strain) (HIV-1).
Assay [4] has as its target gp41 K90E (T2635-resistant HIV-1 strain) (HIV-1).
The target in assay [5] is gp41 K90E/N126K (T2635-resistant HIV-1 strain) (HIV-1).
Assay [6] has as its target gp41 N113E (T2635-resistant HIV-1 strain) (HIV-1).
The target in assay [7] is gp41 N126K (T2635-resistant HIV-1 strain) (HIV-1).
The target of assay [8] is gp41 Q66R (T2635-resistant HIV-1 strain) (HIV-1).
Assay [9] has as its target gp41 Q66R/N113E (T2635-resistant HIV-1 strain) (HIV-1).
In assay [10] the target is gp41 Q79E (T2635-resistant HIV-1 strain) (HIV-1).
The target of assay [11] is gp41 Q79E/N126K (T2635-resistant HIV-1 strain) (HIV-1).
Assay [12] addresses gp41 of the wild-type virus of the T2635-resistant panel (HIV-1).
Assay [13] concerns the target gp41 D36G/E49K/N126K (HP23-resistant HIV-1 strain) (HIV-1).
The target of assay [14] is gp41 E49K (HP23-resistant HIV-1 strain) (HIV-1).
For assay [15], the target named is gp41 E49K/N126K (HP23-resistant HIV-1 strain) (HIV-1).
For assay [16], the target named is gp41 L34S/D36G/E49K/E136G (HP23-resistant HIV-1 strain) (HIV-1).
Assay [17] addresses gp41 V38A (T20-resistant HIV-1 strain) (HIV-1).
For assay [18], the target named is gp41 V38A, N42D (T20-resistant HIV-1 strain) (HIV-1).
Assay [19] addresses gp41 V38A, N42T (T20-resistant HIV-1 strain) (HIV-1).
Assay [20] addresses gp41 V38E, N42S (T20-resistant HIV-1 strain) (HIV-1).
In assay [21] the target is gp41 of the WT virus of the T20-resistant panel (HIV-1).
Assay [22] deals with gp41 of the wild-type virus of the HP23-resistant panel (HIV-1).
The target of assay [23] is NHR peptide N46 (aa 536-581 of NHR) (HIV-1) (UniProt P04578). Description: thermal denaturation followed by circular dichroism. In general terms: Circular dichroism is the unequal absorption of left and right circularly polarised light.
Assay [24] has the same target. The assay can be described thus: ELISA; inhibition of 6-HB formation between N46 and C34.

Sequence of NHR peptide N46 (aa 536-581 of NHR) (HIV-1) (P04578 536-581): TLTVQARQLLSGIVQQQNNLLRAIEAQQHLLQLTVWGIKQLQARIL

HP23 (peptide) yielded an IC50, inhibition of HIV-1 infection (p24 ELISA), T2635-resistant panel, virus A6V; blocks gp41 NHR-CHR 6-HB formation in [1] of 1.6 nM. In addition, the IC50, inhibition of HIV-1 infection (p24 ELISA), T2635-resistant panel, virus H3C; blocks gp41 NHR-CHR 6-HB formation in assay [2] came out at 5.4 nM. The IC50, inhibition of HIV-1 infection (p24 ELISA), T2635-resistant panel, virus K154Q; blocks gp41 NHR-CHR 6-HB formation in assay [3] stood at 7.4 nM. This substance also gave an IC50, inhibition of HIV-1 infection (p24 ELISA), T2635-resistant panel, virus K90E; blocks gp41 NHR-CHR 6-HB formation in assay [4] of 9.4 nM. The substance also gave an IC50, inhibition of HIV-1 infection (p24 ELISA), T2635-resistant panel, virus K90E/N126K; blocks gp41 NHR-CHR 6-HB formation in assay [5] of 4.2 nM. Moreover, the IC50, inhibition of HIV-1 infection (p24 ELISA), T2635-resistant panel, virus N113E; blocks gp41 NHR-CHR 6-HB formation in assay [6] was found to be 2.3 nM. For the same substance, the IC50, inhibition of HIV-1 infection (p24 ELISA), T2635-resistant panel, virus N126K; blocks gp41 NHR-CHR 6-HB formation in assay [7] stood at 8.6 nM. Also, the IC50, inhibition of HIV-1 infection (p24 ELISA), T2635-resistant panel, virus Q66R; blocks gp41 NHR-CHR 6-HB formation in assay [8] worked out at 2.8 nM. Further, the IC50, inhibition of HIV-1 infection (p24 ELISA), T2635-resistant panel, virus Q66R/N113E; blocks gp41 NHR-CHR 6-HB formation in assay [9] was 3.6 nM. In assay [10], this substance came in with an IC50, inhibition of HIV-1 infection (p24 ELISA), T2635-resistant panel, virus Q79E; blocks gp41 NHR-CHR 6-HB formation of 4.2 nM. Besides, the IC50, inhibition of HIV-1 infection (p24 ELISA), T2635-resistant panel, virus Q79E/N126K; blocks gp41 NHR-CHR 6-HB formation in assay [11] was 5.2 nM. In assay [12], this substance came in with an IC50, inhibition of HIV-1 infection (p24 ELISA), T2635-resistant panel, virus wild-type; blocks gp41 NHR-CHR 6-HB formation of 2.8 nM. In assay [13], this substance had an IC50, inhibition of HIV-1 infection (p24 ELISA), HP23-resistant panel, virus D36G/E49K/N126K; blocks gp41 NHR-CHR 6-HB formation of more than 60 nM. In addition, in [14], the IC50, inhibition of HIV-1 infection (p24 ELISA), HP23-resistant panel, virus E49K; blocks gp41 NHR-CHR 6-HB formation was determined as 13.4 nM. Also, the IC50, inhibition of HIV-1 infection (p24 ELISA), HP23-resistant panel, virus E49K/N126K; blocks gp41 NHR-CHR 6-HB formation in assay [15] was 53.8 nM. The substance also displayed an IC50, inhibition of HIV-1 infection (p24 ELISA), HP23-resistant panel, virus L34S/D36G/E49K/E136G; blocks gp41 NHR-CHR 6-HB formation in assay [16] of more than 60 nM. For the same substance, in assay [17], the IC50, inhibition of HIV-1 infection (p24 ELISA), T20-resistant panel, virus V38A; blocks gp41 NHR-CHR 6-HB formation stood at 2.1 nM. For the same substance, the IC50, inhibition of HIV-1 infection (p24 ELISA), T20-resistant panel, virus V38A, N42D; blocks gp41 NHR-CHR 6-HB formation in assay [18] was determined as 2.9 nM. This substance also yielded an IC50, inhibition of HIV-1 infection (p24 ELISA), T20-resistant panel, virus V38A, N42T; blocks gp41 NHR-CHR 6-HB formation in assay [19] of 1.5 nM. In addition, in assay [20], the IC50, inhibition of HIV-1 infection (p24 ELISA), T20-resistant panel, virus V38E, N42S; blocks gp41 NHR-CHR 6-HB formation was 6.2 nM. The substance also returned an IC50, inhibition of HIV-1 infection (p24 ELISA), T20-resistant panel, virus WT; blocks gp41 NHR-CHR 6-HB formation in [21] of 3.1 nM. In addition, the IC50, inhibition of HIV-1 infection (p24 ELISA), HP23-resistant panel, virus wild-type; blocks gp41 NHR-CHR 6-HB formation in [22] is 3.3 nM. For the same substance, the Tm of the 6-HB formed with N46 in assay [23] was 81 °C.
Usually IC50 stands for the concentration that inhibits the measured activity by half. HP23: in [24], the half-maximal inhibitory concentration (IC50) was 3720 nM.
